Assay results taken from the supplement of paper PMC9112550, “Optimization of the antimicrobial peptide Bac7 by deep mutational scanning” (BMC Biology, 2022).

What follows are sequences tested on Escherichia coli TOP10 (assay: shrunken log2 fold change of peptide-encoding DNA abundance (4.5 h post-induction vs induction); higher = less antimicrobial activity (less host growth inhibition)). Conditions: time post-induction: 4.5 h; library: site-saturation at positions 5, 18, 19, 20.
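Also: peptides expressed intracellularly from a pBAD plasmid library in pooled LB shake-flask culture, induced with 0.3% L-arabinose, DNA abundance read by NGS, three biological replicates, DESeq2 with apeglm shrinkage.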

Sequence	shrunken log2 fold change
RRIRARPPRLPRPRPRPKPIPRP	0.319
RRIRARPPRLPRPRPRPKPQPRP	0.533
RRIRARPPRLPRPRPRPKQFPRP	0.3
RRIRARPPRLPRPRPRPKQWPRP	0.587
RRIRARPPRLPRPRPRPKRDPRP	0.135
RRIRARPPRLPRPRPRPKRMPRP	0.258
RRIRARPPRLPRPRPRPKTVPRP	0.141
RRIRARPPRLPRPRPRPKVDPRP	-0.0797
RRIRARPPRLPRPRPRPKVEPRP	0.571
RRIRARPPRLPRPRPRPKVFPRP	0.193
RRIRARPPRLPRPRPRPKVKPRP	0.171
RRIRARPPRLPRPRPRPKVMPRP	0.176
RRIRARPPRLPRPRPRPKWCPRP	0.321
RRIRARPPRLPRPRPRPKWLPRP	0.234
RRIRARPPRLPRPRPRPKWWPRP	0.149
RRIRARPPRLPRPRPRPKYRPRP	-0.118
RRIRARPPRLPRPRPRPLAMPRP	0.474
RRIRARPPRLPRPRPRPLCNPRP	-0.0439
RRIRARPPRLPRPRPRPLEHPRP	0.0565
RRIRARPPRLPRPRPRPLHPPRP	0.256
RRIRARPPRLPRPRPRPLIPPRP	0.449
RRIRARPPRLPRPRPRPLIYPRP	0.0475
RRIRARPPRLPRPRPRPLKDPRP	0.0838
RRIRARPPRLPRPRPRPLKSPRP	0.012
RRIRARPPRLPRPRPRPLLFPRP	0.212

Sequence	shrunken log2 fold change
RRIRARPPRLPRPRPRPLLGPRP	1.07
RRIRARPPRLPRPRPRPLLLPRP	0.313
RRIRARPPRLPRPRPRPLMNPRP	-0.178
RRIRARPPRLPRPRPRPLNYPRP	0.0659
RRIRARPPRLPRPRPRPLPRPRP	0.768
RRIRARPPRLPRPRPRPLQAPRP	0.674
RRIRARPPRLPRPRPRPLQIPRP	0.0194
RRIRARPPRLPRPRPRPLQSPRP	0.625
RRIRARPPRLPRPRPRPLRDPRP	0.948
RRIRARPPRLPRPRPRPLRNPRP	0.516
RRIRARPPRLPRPRPRPLRSPRP	0.914
RRIRARPPRLPRPRPRPLSAPRP	0.636
RRIRARPPRLPRPRPRPLSPPRP	0.0788
RRIRARPPRLPRPRPRPLVGPRP	0.321
RRIRARPPRLPRPRPRPLVMPRP	0.0657
RRIRARPPRLPRPRPRPLWGPRP	0.308
RRIRARPPRLPRPRPRPLYYPRP	-0.316
RRIRARPPRLPRPRPRPMDAPRP	0.293
RRIRARPPRLPRPRPRPMDDPRP	0.197
RRIRARPPRLPRPRPRPMDRPRP	0.108
RRIRARPPRLPRPRPRPMEGPRP	0.667
RRIRARPPRLPRPRPRPMFKPRP	-0.106
RRIRARPPRLPRPRPRPMGVPRP	0.103
RRIRARPPRLPRPRPRPMIGPRP	0.102
RRIRARPPRLPRPRPRPMKQPRP	0.0535

Sequence	shrunken log2 fold change
RRIRARPPRLPRPRPRPMMAPRP	0.466
RRIRARPPRLPRPRPRPMMLPRP	-0.00455
RRIRARPPRLPRPRPRPMMTPRP	0.331
RRIRARPPRLPRPRPRPMNEPRP	0.374
RRIRARPPRLPRPRPRPMNSPRP	-0.279
RRIRARPPRLPRPRPRPMQEPRP	0.421
RRIRARPPRLPRPRPRPMVMPRP	-0.00579
RRIRARPPRLPRPRPRPMWPPRP	0.527
RRIRARPPRLPRPRPRPMYMPRP	-0.354
RRIRARPPRLPRPRPRPNASPRP	0.711
RRIRARPPRLPRPRPRPNCMPRP	-0.421
RRIRARPPRLPRPRPRPNEQPRP	0.234
RRIRARPPRLPRPRPRPNFWPRP	0.352
RRIRARPPRLPRPRPRPNGKPRP	0.3
RRIRARPPRLPRPRPRPNHMPRP	-0.299
RRIRARPPRLPRPRPRPNIDPRP	-0.0883
RRIRARPPRLPRPRPRPNIMPRP	-0.266
RRIRARPPRLPRPRPRPNMMPRP	-0.142
RRIRARPPRLPRPRPRPNQCPRP	-0.176
RRIRARPPRLPRPRPRPNRWPRP	0.331
RRIRARPPRLPRPRPRPNSKPRP	-0.155
RRIRARPPRLPRPRPRPNSNPRP	-0.0294
RRIRARPPRLPRPRPRPNTMPRP	-0.223
RRIRARPPRLPRPRPRPNTTPRP	-0.164
RRIRARPPRLPRPRPRPNVEPRP	0.327

Sequence	shrunken log2 fold change
RRIRARPPRLPRPRPRPNVSPRP	-0.11
RRIRARPPRLPRPRPRPNWKPRP	-0.0233
RRIRARPPRLPRPRPRPNWYPRP	-0.245
RRIRARPPRLPRPRPRPPCLPRP	0.224
RRIRARPPRLPRPRPRPPCMPRP	0.099
RRIRARPPRLPRPRPRPPHNPRP	0.757
RRIRARPPRLPRPRPRPPIHPRP	-0.11
RRIRARPPRLPRPRPRPPIKPRP	-0.0438
RRIRARPPRLPRPRPRPPIQPRP	0.431
RRIRARPPRLPRPRPRPPKAPRP	0.685
RRIRARPPRLPRPRPRPPKGPRP	0.654
RRIRARPPRLPRPRPRPPKVPRP	0.123
RRIRARPPRLPRPRPRPPLFPRP	0.789
RRIRARPPRLPRPRPRPPLMPRP	0.408
RRIRARPPRLPRPRPRPPLNPRP	0.612
RRIRARPPRLPRPRPRPPMCPRP	0.00915
RRIRARPPRLPRPRPRPPNLPRP	0.342
RRIRARPPRLPRPRPRPPNYPRP	-0.0985
RRIRARPPRLPRPRPRPPPGPRP	1.16
RRIRARPPRLPRPRPRPPPKPRP	1.29
RRIRARPPRLPRPRPRPPPMPRP	1.1
RRIRARPPRLPRPRPRPPRGPRP	0.833
RRIRARPPRLPRPRPRPPRKPRP	1.1
RRIRARPPRLPRPRPRPPRLPRP	0.829
RRIRARPPRLPRPRPRPPRQPRP	0.769

Sequence	shrunken log2 fold change
RRIRARPPRLPRPRPRPPSFPRP	0.415
RRIRARPPRLPRPRPRPPSKPRP	0.491
RRIRARPPRLPRPRPRPPTHPRP	0.398
RRIRARPPRLPRPRPRPPTQPRP	0.718
RRIRARPPRLPRPRPRPPVRPRP	0.609
RRIRARPPRLPRPRPRPPWCPRP	0.373
RRIRARPPRLPRPRPRPPYEPRP	0.194
RRIRARPPRLPRPRPRPPYLPRP	-0.188
RRIRARPPRLPRPRPRPQACPRP	0.0559
RRIRARPPRLPRPRPRPQCCPRP	0.219
RRIRARPPRLPRPRPRPQDTPRP	-0.179
RRIRARPPRLPRPRPRPQERPRP	0.0703
RRIRARPPRLPRPRPRPQESPRP	0.0266
RRIRARPPRLPRPRPRPQFVPRP	-0.0892
RRIRARPPRLPRPRPRPQGQPRP	-0.2
RRIRARPPRLPRPRPRPQGVPRP	-0.128
RRIRARPPRLPRPRPRPQHCPRP	0.138
RRIRARPPRLPRPRPRPQHIPRP	-0.0675
RRIRARPPRLPRPRPRPQHQPRP	0.698
RRIRARPPRLPRPRPRPQHTPRP	0.156
RRIRARPPRLPRPRPRPQHVPRP	0.0233
RRIRARPPRLPRPRPRPQIFPRP	-0.0149
RRIRARPPRLPRPRPRPQIMPRP	0.0849
RRIRARPPRLPRPRPRPQIVPRP	-0.0292
RRIRARPPRLPRPRPRPQKGPRP	0.0244

Sequence	shrunken log2 fold change
RRIRARPPRLPRPRPRPQLRPRP	0.157
RRIRARPPRLPRPRPRPQMRPRP	0.62
RRIRARPPRLPRPRPRPQNQPRP	-0.141
RRIRARPPRLPRPRPRPQPHPRP	0.347
RRIRARPPRLPRPRPRPQQPPRP	0.0738
RRIRARPPRLPRPRPRPQRAPRP	1.26
RRIRARPPRLPRPRPRPQRLPRP	0.247
RRIRARPPRLPRPRPRPQSWPRP	0.322
RRIRARPPRLPRPRPRPQTIPRP	-0.196
RRIRARPPRLPRPRPRPQVEPRP	0.399
RRIRARPPRLPRPRPRPQVSPRP	-0.156
RRIRARPPRLPRPRPRPQWPPRP	0.366
RRIRARPPRLPRPRPRPQYPPRP	-0.414
RRIRARPPRLPRPRPRPQYVPRP	-0.116
RRIRARPPRLPRPRPRPRACPRP	0.447
RRIRARPPRLPRPRPRPRAHPRP	0.256
RRIRARPPRLPRPRPRPRALPRP	0.482
RRIRARPPRLPRPRPRPRANPRP	0.694
RRIRARPPRLPRPRPRPREMPRP	0.563
RRIRARPPRLPRPRPRPRGDPRP	3.26
RRIRARPPRLPRPRPRPRHNPRP	-0.0548
RRIRARPPRLPRPRPRPRHRPRP	0.412
RRIRARPPRLPRPRPRPRINPRP	0.105
RRIRARPPRLPRPRPRPRKWPRP	1.28
RRIRARPPRLPRPRPRPRLPPRP	0.667
